Test results: patent US20090232804A1 (GLENMARK PHARMACEUTICALS S A, published 2009)
Values joined by “and” are separate entries in the source; they are usually repeats but may differ in a detail not shown here. Identical values can stand only once.

Target: T1, purified human von Willebrand factor (vWF) (human, UniProt P04275 764-2813)
Assay: cell-based or functional assay

Platelet agglutination EC50, single experiment	Platelet agglutination EC50 mean value (from 2 independent expts.)	Binder
1.3 nM and 1.5 nM	1.4 nM	humanized NMC-4 variant H9L9 IgG4 (antibody, V domains shown) VH: QVQLQESGPGLVKPSETLSLTCTVSGFSLTDYGVDWIRQPPGKGLEWIGMIWGDGSTDYNSALKSRVTISVDTSKNQFSLKLSSVTAADTAVYYCARDPADYGNYDYALDYWGQGTLVTVSS VL: DIQMTQSPSSLSASVGDRVTITCSASQDINKYLNWYQQKPGKAPKLLIYYTSSLHSGVPSRFSGSGSGTDFTLTISSLQPEDFATYYCQQYEKLPWTFGQGTKVEIK
2.3 nM and 2 nM	2.15 nM	humanized NMC-4 variant H14-L10, IgG4 (antibody, V domains shown) VH: QVQLQESGPGLVKPSETLSLTCTVSGGSISDYGWDWIRQPPGKGLEWIGMIWGDGSTDYNPSLKSRVTISVDTSKNQFSLKLSSVTAADTAVYYCARDPADYGNYDYALDYWGQGTLVTVSS VL: DIQMTQSPSSLSASVGDRVTITCQASQDISNYLNWYQQKPGKAPKLLIYYTSSLHSGVPSRFSGSGSGTDFTLTISSLQPEDFATYYCQQYEKLPWTFGQGTKVEIK
1.3 nM	1.3 nM	humanized NMC-4 variant H9, L9 (CDR-grafted), IgG1 (antibody, V domains shown) VH: QVQLQESGPGLVKPSETLSLTCTVSGFSLTDYGVDWIRQPPGKGLEWIGMIWGDGSTDYNSALKSRVTISVDTSKNQFSLKLSSVTAADTAVYYCARDPADYGNYDYALDYWGQGTLVTVSS VL: DIQMTQSPSSLSASVGDRVTITCSASQDINKYLNWYQQKPGKAPKLLIYYTSSLHSGVPSRFSGSGSGTDFTLTISSLQPEDFATYYCQQYEKLPWTFGQGTKVEIK
1.1 nM and 1.3 nM	1.2 nM	humanized NMC-4 variant H14, L10, IgG1 (antibody, V domains shown) VH: QVQLQESGPGLVKPSETLSLTCTVSGGSISDYGWDWIRQPPGKGLEWIGMIWGDGSTDYNPSLKSRVTISVDTSKNQFSLKLSSVTAADTAVYYCARDPADYGNYDYALDYWGQGTLVTVSS VL: DIQMTQSPSSLSASVGDRVTITCQASQDISNYLNWYQQKPGKAPKLLIYYTSSLHSGVPSRFSGSGSGTDFTLTISSLQPEDFATYYCQQYEKLPWTFGQGTKVEIK

Target: T1, purified human von Willebrand factor …
Assay: cell-based or functional assay
Remark: another data set of the same source

Binder	EC50
humanized NMC-4 variant H2, L4 (IgG1) (antibody, V domains shown) VH: QVQLQESGPGLVKPSETLSLTCTVSGFSLTDYGVDWIRQPPGKGLEWIGMIWGDGSTDYNSALKSRLTISKDNSKNQVSLKLSSVTAADTAVYYCVRDPADYGNYDYALDYWGQGTSLTVSS VL: DIQMTQSPSSLSASVGDRVTITCSASQDINKYLNWYQQKPGKAPKLLIFYTSSLHSGVPSRFSGSGSGTDYTLTISSLQPEDIATYYCQQYEKLPWTFGQGTKVEIK	0.14 nM
humanized NMC-4 variant H6, L5 (IgG1) (antibody, V domains shown) VH: QVQLQESGPGLVKPSETLSLTCTVSGFSLTDYGVDWIRQPPGKGLEWIGMIWGDGSTDYNSALKSRLTISVDNSKNQVSLKLSSVTAADTAVYYCVRDPADYGNYDYALDYWGQGTSLTVSS VL: DIQMTQSPSSLSASVGDRVTITCSASQDINKYLNWYQQKPGKAVKLLIFYTSSLHSGVPSRFSGSGSGTDYTLTISSLQPEDIATYYCQQYEKLPWTFGQGTKVEIK	0.18 nM
humanized NMC-4 variant H2, L6 (IgG1) (antibody, V domains shown) VH: QVQLQESGPGLVKPSETLSLTCTVSGFSLTDYGVDWIRQPPGKGLEWIGMIWGDGSTDYNSALKSRLTISKDNSKNQVSLKLSSVTAADTAVYYCVRDPADYGNYDYALDYWGQGTSLTVSS VL: DIQMTQSPSSLSASVGDRVTITCSASQDINKYLNWYQQKPGKAVKLLIYYTSSLHSGVPSRFSGSGSGTDYTLTISSLQPEDIATYYCQQYEKLPWTFGQGTKVEIK	0.14 nM
humanized NMC-4 variant H9, L5 (IgG1) (antibody, V domains shown) VH: QVQLQESGPGLVKPSETLSLTCTVSGFSLTDYGVDWIRQPPGKGLEWIGMIWGDGSTDYNSALKSRVTISVDTSKNQFSLKLSSVTAADTAVYYCARDPADYGNYDYALDYWGQGTLVTVSS VL: DIQMTQSPSSLSASVGDRVTITCSASQDINKYLNWYQQKPGKAVKLLIFYTSSLHSGVPSRFSGSGSGTDYTLTISSLQPEDIATYYCQQYEKLPWTFGQGTKVEIK	0.14 nM
humanized NMC-4 variant H2, L5 (IgG1) (antibody, V domains shown) VH: QVQLQESGPGLVKPSETLSLTCTVSGFSLTDYGVDWIRQPPGKGLEWIGMIWGDGSTDYNSALKSRLTISKDNSKNQVSLKLSSVTAADTAVYYCVRDPADYGNYDYALDYWGQGTSLTVSS VL: DIQMTQSPSSLSASVGDRVTITCSASQDINKYLNWYQQKPGKAVKLLIFYTSSLHSGVPSRFSGSGSGTDYTLTISSLQPEDIATYYCQQYEKLPWTFGQGTKVEIK	0.13 nM
humanized NMC-4 variant H5, L5 (IgG1) (antibody, V domains shown) VH: QVQLQESGPGLVKPSETLSLTCTVSGFSLTDYGVDWIRQPPGKGLEWIGMIWGDGSTDYNSALKSRVTISKDNSKNQVSLKLSSVTAADTAVYYCVRDPADYGNYDYALDYWGQGTSLTVSS VL: DIQMTQSPSSLSASVGDRVTITCSASQDINKYLNWYQQKPGKAVKLLIFYTSSLHSGVPSRFSGSGSGTDYTLTISSLQPEDIATYYCQQYEKLPWTFGQGTKVEIK	0.18 nM
humanized NMC-4 variant H4, L5 (IgG1) (antibody, V domains shown) VH: QVQLQESGPGLVKPSETLSLTCTVSGFSLTDYGVDWIRQPPGKGLEWIGMIWGDGSTDYNSALKSRLTISKDNSKNQVSLKLSSVTAADTAVYYCARDPADYGNYDYALDYWGQGTSLTVSS VL: DIQMTQSPSSLSASVGDRVTITCSASQDINKYLNWYQQKPGKAVKLLIFYTSSLHSGVPSRFSGSGSGTDYTLTISSLQPEDIATYYCQQYEKLPWTFGQGTKVEIK	0.15 nM
humanized NMC-4 variant H2, L7 (IgG1) (antibody, V domains shown) VH: QVQLQESGPGLVKPSETLSLTCTVSGFSLTDYGVDWIRQPPGKGLEWIGMIWGDGSTDYNSALKSRLTISKDNSKNQVSLKLSSVTAADTAVYYCVRDPADYGNYDYALDYWGQGTSLTVSS VL: DIQMTQSPSSLSASVGDRVTITCSASQDINKYLNWYQQKPGKAVKLLIFYTSSLHSGVPSRFSGSGSGTDFTLTISSLQPEDIATYYCQQYEKLPWTFGQGTKVEIK	0.15 nM
humanized NMC-4 variant H9, L4 (IgG1) (antibody, V domains shown) VH: QVQLQESGPGLVKPSETLSLTCTVSGFSLTDYGVDWIRQPPGKGLEWIGMIWGDGSTDYNSALKSRVTISVDTSKNQFSLKLSSVTAADTAVYYCARDPADYGNYDYALDYWGQGTLVTVSS VL: DIQMTQSPSSLSASVGDRVTITCSASQDINKYLNWYQQKPGKAPKLLIFYTSSLHSGVPSRFSGSGSGTDYTLTISSLQPEDIATYYCQQYEKLPWTFGQGTKVEIK	0.11 nM
humanized NMC-4 variant H7, L5 (IgG1) (antibody, V domains shown) VH: QVQLQESGPGLVKPSETLSLTCTVSGFSLTDYGVDWIRQPPGKGLEWIGMIWGDGSTDYNSALKSRLTISKDTSKNQVSLKLSSVTAADTAVYYCVRDPADYGNYDYALDYWGQGTSLTVSS VL: DIQMTQSPSSLSASVGDRVTITCSASQDINKYLNWYQQKPGKAVKLLIFYTSSLHSGVPSRFSGSGSGTDYTLTISSLQPEDIATYYCQQYEKLPWTFGQGTKVEIK	0.16 nM

Second part, the binder after the results:

EC50	Binder
0.08 nM	humanized NMC-4 variant H9, L8 (IgG1) (antibody, V domains shown) VH: QVQLQESGPGLVKPSETLSLTCTVSGFSLTDYGVDWIRQPPGKGLEWIGMIWGDGSTDYNSALKSRVTISVDTSKNQFSLKLSSVTAADTAVYYCARDPADYGNYDYALDYWGQGTLVTVSS VL: DIQMTQSPSSLSASVGDRVTITCSASQDINKYLNWYQQKPGKAPKLLIYYTSSLHSGVPSRFSGSGSGTDFTLTISSLQPEDIATYYCQQYEKLPWTFGQGTKVEIK
0.11 nM	humanized NMC-4 variant H9, L7 (IgG1) (antibody, V domains shown) VH: QVQLQESGPGLVKPSETLSLTCTVSGFSLTDYGVDWIRQPPGKGLEWIGMIWGDGSTDYNSALKSRVTISVDTSKNQFSLKLSSVTAADTAVYYCARDPADYGNYDYALDYWGQGTLVTVSS VL: DIQMTQSPSSLSASVGDRVTITCSASQDINKYLNWYQQKPGKAVKLLIFYTSSLHSGVPSRFSGSGSGTDFTLTISSLQPEDIATYYCQQYEKLPWTFGQGTKVEIK
0.12 nM	humanized NMC-4 variant H9, L9 (CDR-grafted), IgG1 (antibody, V domains shown) VH: QVQLQESGPGLVKPSETLSLTCTVSGFSLTDYGVDWIRQPPGKGLEWIGMIWGDGSTDYNSALKSRVTISVDTSKNQFSLKLSSVTAADTAVYYCARDPADYGNYDYALDYWGQGTLVTVSS VL: DIQMTQSPSSLSASVGDRVTITCSASQDINKYLNWYQQKPGKAPKLLIYYTSSLHSGVPSRFSGSGSGTDFTLTISSLQPEDFATYYCQQYEKLPWTFGQGTKVEIK
0.13 nM	humanized NMC-4 variant H9, L6 (IgG1) (antibody, V domains shown) VH: QVQLQESGPGLVKPSETLSLTCTVSGFSLTDYGVDWIRQPPGKGLEWIGMIWGDGSTDYNSALKSRVTISVDTSKNQFSLKLSSVTAADTAVYYCARDPADYGNYDYALDYWGQGTLVTVSS VL: DIQMTQSPSSLSASVGDRVTITCSASQDINKYLNWYQQKPGKAVKLLIYYTSSLHSGVPSRFSGSGSGTDYTLTISSLQPEDIATYYCQQYEKLPWTFGQGTKVEIK

Target: T1, purified human von Willebrand factor …
Assay: cell-based or functional assay
Remark: another data set of the same source

EC50 (nM), platelet agglutination assay	Binder
0.2 nM	humanized NMC-4 variant H13, L10 (IgG1) (antibody, V domains shown) VH: QVQLQESGPGLVKPSETLSLTCTVSGGSISDYGWDWIRQPPGKGLEWIGMIWGDGSTDYNSALKSRVTISVDTSKNQFSLKLSSVTAADTAVYYCARDPADYGNYDYALDYWGQGTLVTVSS VL: DIQMTQSPSSLSASVGDRVTITCQASQDISNYLNWYQQKPGKAPKLLIYYTSSLHSGVPSRFSGSGSGTDFTLTISSLQPEDFATYYCQQYEKLPWTFGQGTKVEIK
0.16 nM	humanized NMC-4 variant H13, L9 (IgG1) (antibody, V domains shown) VH: QVQLQESGPGLVKPSETLSLTCTVSGGSISDYGWDWIRQPPGKGLEWIGMIWGDGSTDYNSALKSRVTISVDTSKNQFSLKLSSVTAADTAVYYCARDPADYGNYDYALDYWGQGTLVTVSS VL: DIQMTQSPSSLSASVGDRVTITCSASQDINKYLNWYQQKPGKAPKLLIYYTSSLHSGVPSRFSGSGSGTDFTLTISSLQPEDFATYYCQQYEKLPWTFGQGTKVEIK
0.12 nM	humanized NMC-4 variant H9, L9 (CDR-grafted), IgG1 (antibody, V domains shown) VH: QVQLQESGPGLVKPSETLSLTCTVSGFSLTDYGVDWIRQPPGKGLEWIGMIWGDGSTDYNSALKSRVTISVDTSKNQFSLKLSSVTAADTAVYYCARDPADYGNYDYALDYWGQGTLVTVSS VL: DIQMTQSPSSLSASVGDRVTITCSASQDINKYLNWYQQKPGKAPKLLIYYTSSLHSGVPSRFSGSGSGTDFTLTISSLQPEDFATYYCQQYEKLPWTFGQGTKVEIK
0.13 nM	humanized NMC-4 variant H14, L9 (IgG1) (antibody, V domains shown) VH: QVQLQESGPGLVKPSETLSLTCTVSGGSISDYGWDWIRQPPGKGLEWIGMIWGDGSTDYNPSLKSRVTISVDTSKNQFSLKLSSVTAADTAVYYCARDPADYGNYDYALDYWGQGTLVTVSS VL: DIQMTQSPSSLSASVGDRVTITCSASQDINKYLNWYQQKPGKAPKLLIYYTSSLHSGVPSRFSGSGSGTDFTLTISSLQPEDFATYYCQQYEKLPWTFGQGTKVEIK
0.29 nM	humanized NMC-4 variant H12, L9 (IgG1) (antibody, V domains shown) VH: QVQLQESGPGLVKPSETLSLTCTVSGGSISDYGVDWIRQPPGKGLEWIGMIWGDGSTDYNSALKSRVTISVDTSKNQFSLKLSSVTAADTAVYYCARDPADYGNYDYALDYWGQGTLVTVSS VL: DIQMTQSPSSLSASVGDRVTITCSASQDINKYLNWYQQKPGKAPKLLIYYTSSLHSGVPSRFSGSGSGTDFTLTISSLQPEDFATYYCQQYEKLPWTFGQGTKVEIK
0.22 nM	humanized NMC-4 variant H14, L10, IgG1 (antibody, V domains shown) VH: QVQLQESGPGLVKPSETLSLTCTVSGGSISDYGWDWIRQPPGKGLEWIGMIWGDGSTDYNPSLKSRVTISVDTSKNQFSLKLSSVTAADTAVYYCARDPADYGNYDYALDYWGQGTLVTVSS VL: DIQMTQSPSSLSASVGDRVTITCQASQDISNYLNWYQQKPGKAPKLLIYYTSSLHSGVPSRFSGSGSGTDFTLTISSLQPEDFATYYCQQYEKLPWTFGQGTKVEIK
